In publication PMC2779590 (2009):

Molecular target: α5β1 integrin (Homo sapiens, UniProt P08648)
Assay: SPR

α5β1 integrin, sequence (P08648 42-1049, chain 1 of 2): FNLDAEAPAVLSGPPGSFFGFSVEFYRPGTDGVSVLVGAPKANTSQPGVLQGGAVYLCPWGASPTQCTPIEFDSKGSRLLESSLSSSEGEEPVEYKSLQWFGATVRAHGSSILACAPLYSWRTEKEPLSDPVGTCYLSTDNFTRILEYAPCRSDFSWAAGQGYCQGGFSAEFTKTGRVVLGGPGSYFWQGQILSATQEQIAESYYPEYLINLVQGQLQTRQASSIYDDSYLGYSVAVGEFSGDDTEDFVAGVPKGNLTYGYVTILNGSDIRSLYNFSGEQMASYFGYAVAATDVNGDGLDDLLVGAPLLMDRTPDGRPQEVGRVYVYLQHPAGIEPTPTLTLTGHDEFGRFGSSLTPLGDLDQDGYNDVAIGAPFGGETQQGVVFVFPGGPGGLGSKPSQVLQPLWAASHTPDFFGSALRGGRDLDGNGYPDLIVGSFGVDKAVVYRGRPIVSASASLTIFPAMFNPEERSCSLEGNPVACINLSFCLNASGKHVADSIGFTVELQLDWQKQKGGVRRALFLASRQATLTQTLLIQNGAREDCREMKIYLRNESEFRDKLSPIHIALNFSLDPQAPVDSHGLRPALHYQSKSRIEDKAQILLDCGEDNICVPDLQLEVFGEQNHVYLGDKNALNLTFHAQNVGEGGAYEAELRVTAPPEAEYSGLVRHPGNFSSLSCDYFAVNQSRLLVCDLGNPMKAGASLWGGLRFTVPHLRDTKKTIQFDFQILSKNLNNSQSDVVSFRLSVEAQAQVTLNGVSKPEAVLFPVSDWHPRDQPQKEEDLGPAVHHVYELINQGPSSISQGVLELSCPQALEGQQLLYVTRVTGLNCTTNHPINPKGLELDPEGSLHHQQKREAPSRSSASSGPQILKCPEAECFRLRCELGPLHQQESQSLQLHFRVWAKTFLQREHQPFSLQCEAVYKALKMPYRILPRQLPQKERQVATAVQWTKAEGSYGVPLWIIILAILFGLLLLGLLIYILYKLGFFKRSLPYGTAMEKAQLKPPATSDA
α5β1 integrin, sequence (chain, as listed by the source, chain 2 of 2): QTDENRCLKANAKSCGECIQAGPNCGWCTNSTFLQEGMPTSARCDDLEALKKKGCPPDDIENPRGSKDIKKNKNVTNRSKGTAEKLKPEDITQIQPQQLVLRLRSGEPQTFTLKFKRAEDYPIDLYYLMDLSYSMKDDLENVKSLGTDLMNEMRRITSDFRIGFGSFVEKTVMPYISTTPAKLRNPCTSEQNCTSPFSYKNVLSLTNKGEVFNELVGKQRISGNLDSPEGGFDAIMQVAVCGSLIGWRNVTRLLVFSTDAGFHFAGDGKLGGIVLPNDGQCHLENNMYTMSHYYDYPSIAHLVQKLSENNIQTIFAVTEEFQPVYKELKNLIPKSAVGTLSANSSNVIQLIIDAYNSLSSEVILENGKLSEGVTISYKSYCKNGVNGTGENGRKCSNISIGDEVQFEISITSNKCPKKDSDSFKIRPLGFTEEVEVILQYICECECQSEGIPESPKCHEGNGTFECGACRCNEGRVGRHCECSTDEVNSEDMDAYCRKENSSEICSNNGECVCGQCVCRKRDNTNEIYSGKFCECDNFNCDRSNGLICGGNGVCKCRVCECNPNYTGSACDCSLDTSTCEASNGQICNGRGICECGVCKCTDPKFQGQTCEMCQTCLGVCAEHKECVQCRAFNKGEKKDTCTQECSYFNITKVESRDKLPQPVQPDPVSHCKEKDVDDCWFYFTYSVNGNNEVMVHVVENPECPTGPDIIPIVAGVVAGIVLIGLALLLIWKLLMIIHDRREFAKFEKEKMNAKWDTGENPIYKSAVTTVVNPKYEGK

B1: CagA (protein)
chain: MTNETIDQTRTPDQTQSQTAFDPQQFINNLQVAFIKVDNVVASFDPDQKPIVDKNDRDNRQAFDGISQLREEYSNKAIKNPTKKNQYFSDFIDKSNDLINKDNLIDVESSTKSFQKFGDQRYQIFTSWVSHQKDPSKINTRSIRNFMENIIQPPIPDDKEKAEFLKSAKQSFAGIIIGNQIRTDQKFMGVFDESLKERQEAEKNGGPTGGDWLDIFLSFIFNKKQSSDVKEAINQEPVPHVQPDIATTTTDIQGLPPEARDLLDERGNFSKFTLGDMEMLDVEGVADIDPNYKFNQLLIHNNALSSVLMGSHNGIEPEKVSLLYAGNGGFGDKHDWNATVGYKDQQGNNVATLINVHMKNGSGLVIAGGEKGINNPSFYLYKEDQLTGSQRALSQEEIRNKVDFMEFLAQNNTKLDNLSEKEKEKFQNEIEDFQKDSKAYLDALGNDRIAFVSKKDTKHSALITEFNNGDLSYTLKDYGKKADKALDREKNVTLQGSLKHDGVMFVDYSNFKYTNASKNPNKGVGATNGVSHLEAGFNKVAVFNLPDLNNLAITSFVRRNLENKLTAKGLSLQEANKLIKDFLSSNKELAGKALNFNKAVAEAKSTGNYDEVKKAQKDLEKSLRKREHLEKEVEKKLESKSGNKNKMEAKAQANSQKDEIFALINKEANRDARAIAYTQNLKGIKRELSDKLEKISKDLKDFSKSFDEFKNGKNKDFSKAEETLKALKGSVKDLGINPEWISKVENLNAALNEFKNGKNKDFSKVTQAKSDLENSVKDVIINQKVTDKVDNLNQAVSVAKAMGDFSRVEQVLADLKNFSKEQLAQQAQKNEDFNTGKNSELYQSVKNSVNKTLVGNGLSGIEATALAKNFSDIKKELNEKFKNFNNNNNGLKNSTEPIYAKVNKKKTGQVASPEEPIYTQVAKKVNAKIDRLNQIASGLGGVGQAAGFPLKRHDKVDDLSKVGLSASPEPIYATIDDLGGPFPLKRHDKVDDLSKVGRSRNQELAQKIDNLNQAVSEAKAGFFGNLEQTIDKLKDSTKKNVMNLYVESAKKVPASLSAKLDNYAINSHTRINSNIQNGAINEKATGMLTQKNPEWLKLVNDKIVAHNVGSVSLSEYDKIGFNQKNMKDYSDSFKFSTKLNNAVKDIKSGFTHFLANAFSTGYYCLARENAEHGIKNVNTKGGFQKS
  Kd: 0.15 nM
